94 variants from the supplement of paper PMC10567573 can be followed below.

The labels stand for the following.
B1: ZNF263 (parent)
chain: VPGTQVGQGGKLWDPSVQSCKEGL
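Also: lentivirally expressed fusions sorted by FACS into six bins by GFP to DsRed ratio, PSI derived from sequencing read proportions per bin multiplied by bin number.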

The variants in the data set derive from B1. Kind of data set: protein stability index of a GFP-peptide fusion (GPS, HEK-293T) (PSI 1-6); higher = more stable. The conditions noted are these: c terminus: a fixed tail appended.
In the case of VPGTQVGQGGKLWDPSVQSCVEGL [K21V], the protein stability index was 3.89.

Regarding VPGTQVGQGGKLWDPSVQSCHEGL [K21H], the protein stability index was 4.05.

Turning to VPGTQVGQGGKLWDPSVQSCCEGL [K21C], the protein stability index amounted to 4.64.

In the case of VPGTQVGQGGKLWDPSVQSCREGL [K21R], the protein stability index turned out to be 4.04.

In the case of VPGTQVGQGGKLWDPSVQSCGEGL [K21G], the protein stability index came to 3.99.

Regarding VPGTQVGQGGKLWDPSVQSCWEGL [K21W], the protein stability index amounted to 3.52.

In the case of VPGTQVGQGGKLWDPSVQSCQEGL [K21Q], the protein stability index was found to be 4.29.

Take VPGTQVGQGGKLWDPSVQSCSEGL [K21S]: the protein stability index was determined as 3.72.

As for VPGTQVGQGGKLWDPSVQSCAEGL [K21A], the protein stability index amounted to 3.91.

On to VPGTQVGQGGKLWDPSVQSCLEGL [K21L], for which the protein stability index was found to be 3.69.

VPGTQVGQGGKLWDPSVQSCNEGL [K21N]: the protein stability index worked out at 4.16.

For VPGTQVGQGGKLWDPSVQSCDEGL [K21D], the protein stability index was 4.79.

Turning to VPGTQVGQGGKLWDPSVQSCEEGL [K21E], the protein stability index was 4.78.

In the case of VPGTQVGQGGKLWDPSVQSCFEGL [K21F], the protein stability index turned out to be 3.27.

For VPGTQVGQGGKLWDPSVQSCTEGL [K21T], the protein stability index was 5.17.

In the case of VPGTQVGQGGKLWDPSVQSCMEGL [K21M], the protein stability index worked out at 3.92.

As to VPGTQVGQGGKLWDPSVQSCYEGL [K21Y], the protein stability index amounted to 3.4.

For VPGTQVGQGGKLWDPSVQSFKEGL [C20F], the protein stability index amounted to 3.1.

Consider VPGTQVGQGGKLWDPSVQSMKEGL [C20M], for which the protein stability index is 4.43.

As to VPGTQVGQGGKLWDPSVQSWKEGL [C20W], the protein stability index came out at 3.08.

With VPGTQVGQGGKLWDPSVQSYKEGL [C20Y], the protein stability index is 3.52.

For VPGTQVGQGGKLWDPSVQSQKEGL [C20Q], the protein stability index is 4.6.

Consider VPGTQVGQGGKLWDPSVQSAKEGL [C20A], for which the protein stability index was determined as 4.15.

VPGTQVGQGGKLWDPSVQSVKEGL [C20V]: the protein stability index stood at 4.36.

Consider VPGTQVGQGGKLWDPSVQSKKEGL [C20K], for which the protein stability index stood at 4.13.

For VPGTQVGQGGKLWDPSVQSIKEGL [C20I], the protein stability index came to 3.79.

VPGTQVGQGGKLWDPSVQSPKEGL [C20P]: the protein stability index came to 4.33.

As for VPGTQVGQGGKLWDPSVQSSKEGL [C20S], the protein stability index turned out to be 4.31.

For the variant VPGTQVGQGGKLWDPSVQSEKEGL [C20E], the protein stability index stood at 5.02.

For VPGTQVGQGGKLWDPSVQSNKEGL [C20N], the protein stability index worked out at 4.68.

As to VPGTQVGQGGKLWDPSVQSLKEGL [C20L], the protein stability index came out at 4.05.

For VPGTQVGQGGKLWDPSVQSTKEGL [C20T], the protein stability index stood at 4.25.

Take VPGTQVGQGGKLWDPSVQSGKEGL [C20G]: the protein stability index turned out to be 4.74.

Regarding VPGTQVGQGGKLWDPSVQSDKEGL [C20D], the protein stability index was found to be 4.59.

In the case of VPGTQVGQGGKLWDPSVQSRKEGL [C20R], the protein stability index was determined as 4.04.

As to VPGTQVGQGGKLWDPSVQSHKEGL [C20H], the protein stability index turned out to be 3.6.

In the case of VPGTQVGQGGKLWDPQVQSCKEGL [S16Q], the protein stability index stood at 4.38.

Take VPGTQVGQGGKLWDPKVQSCKEGL [S16K]: the protein stability index turned out to be 4.11.

As to VPGTQVGQGGKLWDPPVQSCKEGL [S16P], the protein stability index turned out to be 4.45.

Consider VPGTQVGQGGKLWDPEVQSCKEGL [S16E], for which the protein stability index worked out at 4.73.

As for VPGTQVGQGGKLWDPLVQSCKEGL [S16L], the protein stability index came to 3.53.

Consider VPGTQVGQGGKLWDPYVQSCKEGL [S16Y], for which the protein stability index came to 3.68.

For the variant VPGTQVGQGGKLWDPIVQSCKEGL [S16I], the protein stability index is 3.15.

As to VPGTQVGQGGKLWDPTVQSCKEGL [S16T], the protein stability index was found to be 4.58.

On to VPGTQVGQGGKLWDPNVQSCKEGL [S16N], for which the protein stability index is 3.89.

In the case of VPGTQVGQGGKLWDPHVQSCKEGL [S16H], the protein stability index is 4.27.

For VPGTQVGQGGKLWDPWVQSCKEGL [S16W], the protein stability index worked out at 3.17.

Turning to VPGTQVGQGGKLWDPRVQSCKEGL [S16R], the protein stability index came to 3.12.

As for VPGTQVGQGGKLWDPGVQSCKEGL [S16G], the protein stability index turned out to be 4.21.

On to VPGTQVGQGGKLWDPMVQSCKEGL [S16M], for which the protein stability index came to 3.92.

As for VPGTQVGQGGKLWDPVVQSCKEGL [S16V], the protein stability index worked out at 4.02.

For VPGTQVGQGGKLWDPFVQSCKEGL [S16F], the protein stability index is 3.12.

As to VPGTQVGQGGKLWDPSVQSCKEEL [G23E], the protein stability index was determined as 4.4.

Take VPGTQVGQGGKLWDPSVQSCKERL [G23R]: the protein stability index was 4.34.

VPGTQVGQGGKLWDPSVQSCKEDL [G23D]: the protein stability index came to 4.36.

For VPGTQVGQGGKLWDPSVQSCKENL [G23N], the protein stability index is 4.34.

On to VPGTQVGQGGKLWDPSVQSCKEFL [G23F], for which the protein stability index is 2.69.

VPGTQVGQGGKLWDPSVQSCKEWL [G23W]: the protein stability index was 3.12.

With VPGTQVGQGGKLWDPSVQSCKEAL [G23A], the protein stability index is 3.89.

On to VPGTQVGQGGKLWDPSVQSCKECL [G23C], for which the protein stability index was found to be 3.59.

Turning to VPGTQVGQGGKLWDPSVQSCKEIL [G23I], the protein stability index turned out to be 3.46.

Take VPGTQVGQGGKLWDPSVQSCKEPL [G23P]: the protein stability index stood at 4.32.

As for VPGTQVGQGGKLWDPSVQSCKEML [G23M], the protein stability index worked out at 3.88.

Regarding VPGTQVGQGGKLWDPSVQSCKEHL [G23H], the protein stability index came out at 3.64.

On to VPGTQVGQGGKLWDPSVQSCKESL [G23S], for which the protein stability index came to 3.98.

Consider VPGTQVGQGGKLWDPSVQSCKETL [G23T], for which the protein stability index is 3.96.

In the case of VPGTQVGQGGKLWDPSVQSCKEKL [G23K], the protein stability index was 4.35.

Take VPGTQVGQGGKLWDPSVQSCKEYL [G23Y]: the protein stability index stood at 2.96.

Take VPGTQVGQGGKLWDPSVQSCKEVL [G23V]: the protein stability index was 4.6.

Turning to VPGTQVGQGGKLWDPSVQSCKEQL [G23Q], the protein stability index is 3.51.

VPGTQVGQGGKLWDPSVQSCKELL [G23L]: the protein stability index worked out at 3.62.

Turning to VPGTQVGQGGKLWDPSSQSCKEGL [V17S], the protein stability index was found to be 4.92.

In the case of VPGTQVGQGGKLWDPSTQSCKEGL [V17T], the protein stability index worked out at 3.74.

VPGTQVGQGGKLWDPSGQSCKEGL [V17G]: the protein stability index is 3.99.

As for VPGTQVGQGGKLWDPSLQSCKEGL [V17L], the protein stability index is 4.08.

With VPGTQVGQGGKLWDPSCQSCKEGL [V17C], the protein stability index was determined as 4.15.

With VPGTQVGQGGKLWDPSYQSCKEGL [V17Y], the protein stability index worked out at 4.1.

VPGTQVGQGGKLWDPSFQSCKEGL [V17F]: the protein stability index was found to be 3.38.

As for VPGTQVGQGGKLWDPSIQSCKEGL [V17I], the protein stability index turned out to be 3.89.

For the variant VPGTQVGQGGKLWDPSRQSCKEGL [V17R], the protein stability index stood at 4.23.

Take VPGTQVGQGGKLWDPSDQSCKEGL [V17D]: the protein stability index was 4.92.

For the variant VPGTQVGQGGKLWDPSPQSCKEGL [V17P], the protein stability index came out at 4.24.

Regarding VPGTQVGQGGKLWDPSHQSCKEGL [V17H], the protein stability index is 4.1.

With VPGTQVGQGGKLWDPSEQSCKEGL [V17E], the protein stability index was determined as 5.16.

Consider VPGTQVGQGGKLWDPSNQSCKEGL [V17N], for which the protein stability index was found to be 4.07.

Consider VPGTQVGQGGKLWDPSKQSCKEGL [V17K], for which the protein stability index was found to be 4.33.

Turning to VPGTQVGQGGKLWDPSQQSCKEGL [V17Q], the protein stability index was 3.8.

For the variant VPGTQVGQGGKLWDPSMQSCKEGL [V17M], the protein stability index turned out to be 4.06.

Regarding VPGTQVGQGGKLWDPSAQSCKEGL [V17A], the protein stability index was 4.38.

Take VPGTQVGQGGKLWDPSVQSCKKGL [E22K]: the protein stability index was found to be 4.49.

As for VPGTQVGQGGKLWDPSVQSCKNGL [E22N], the protein stability index worked out at 3.64.

In the case of VPGTQVGQGGKLWDPSVQSCKTGL [E22T], the protein stability index was 4.42.

Regarding VPGTQVGQGGKLWDPSVQSCKPGL [E22P], the protein stability index was determined as 3.46.

Consider VPGTQVGQGGKLWDPSVQSCKIGL [E22I], for which the protein stability index came out at 3.23.
